The results in this text go back to PMC9424959, “Single mutations toggle the substrate selectivity of multifunctional Camptotheca secologanic acid synthases” (The Journal of Biological Chemistry, 2022).

Data set [1] addresses T1, CYP72A565 (Camptotheca acuminata, UniProt A0A4Y5UJ61).
T1 construct: full-length ORF, C-terminal His6, in pCWori, expressed in E. coli, purified; kinetics with Camptotheca CPR1 and DLPC
Kind of data set: LC-MS of secologanic acid formed, reconstituted with CPR1. The format is biochemical. The following applies: 250 uM substrate, 500 uM NADPH, Camptotheca CPR1, DLPC, 100 mM NaPO4 pH 7.5, 30 °C, 120 min.

Data set [2] deals with T2, CYP72A564 (Camptotheca acuminata, UniProt A0A7G8Z808).
T2 construct: full-length ORF, C-terminal His6, in pCWori, expressed in E. coli, purified; kinetics with Camptotheca CPR1 and DLPC
The description is as above. The format is biochemical. The following applies: 250 uM substrate, 500 uM NADPH, Camptotheca CPR1, DLPC, 100 mM NaPO4 pH 7.5, 30 °C, 120 min.

In data set [3] the target is T1, CYP72A565. Kind of data set: LC-MS of secologanin formed, reconstituted with CPR1. The format is biochemical. The following applies: 250 uM substrate, 500 uM NADPH, Camptotheca CPR1, DLPC, 100 mM NaPO4 pH 7.5, 30 °C, 120 min.
Data set [4] addresses SLS, SLAS common ancestor (node 34) (synthetic construct). Kind of data set: Type I difference spectral titration. The format is binding. The following applies: read-out: Ks/mM. The source says:
Type I difference spectral titration on SLS, SLAS common ancestor (node 34)

Data set [5] addresses T3, CYP72A564 (Camptotheca acuminata, UniProt A0A7G8Z808, H132D).
T3 construct: full-length ORF, C-terminal His6, in pCWori, expressed in E. coli, purified; kinetics with Camptotheca CPR1 and DLPC
Kind of data set: Type I difference spectral titration. The following applies: read-out: Ks/mM. The format is binding. The source says:
(§1) Type I difference spectral titration on CYP72A564

In data set [6] the target is T4, CYP72A564 (Camptotheca acuminata, UniProt A0A7G8Z808, H131F).
T4 construct: full-length ORF, C-terminal His6, in pCWori, expressed in E. coli, purified; kinetics with Camptotheca CPR1 and DLPC
Kind of data set: Type I difference spectral titration. The following applies: read-out: Ks/mM. The format is binding.
Source text: as §1

Data set [7] has as its target T2, CYP72A564. Kind of data set: LC-MS of secologanin formed, reconstituted with CPR1. The format is biochemical. The following applies: 250 uM substrate, 500 uM NADPH, Camptotheca CPR1, DLPC, 100 mM NaPO4 pH 7.5, 30 °C, 120 min.
Data set [8] addresses T5, CYP72A565 (Camptotheca acuminata, UniProt A0A4Y5UJ61, H131F/H132D).
T5 construct: full-length ORF, C-terminal His6, in pCWori, expressed in E. coli, purified; kinetics with Camptotheca CPR1 and DLPC
As to the kind of experiment: Type I difference spectral titration. The format is binding. The following applies: read-out: Ks/mM. The source says: (§2) Type I difference spectral titration on CYP72A565

For data set [9], the target named is T6, CYP72A565 (Camptotheca acuminata, UniProt A0A4Y5UJ61, K270T).
T6 construct: full-length ORF, C-terminal His6, in pCWori, expressed in E. coli, purified; kinetics with Camptotheca CPR1 and DLPC
Kind of data set: Type I difference spectral titration. The format is binding. The following applies: read-out: Ks/mM.
Source text: as §2

The target in data set [10] is T7, CYP72A565 (Camptotheca acuminata, UniProt A0A4Y5UJ61, H131F).
T7 construct: full-length ORF, C-terminal His6, in pCWori, expressed in E. coli, purified; kinetics with Camptotheca CPR1 and DLPC
As to the kind of experiment: Type I difference spectral titration. The format is binding. The following applies: read-out: Ks/mM.
Source text: as §2

Substrate in data set [11]: COC(=O)C1=CO[C@@H](O[C@@H]2O[C@H](CO)[C@@H](O)[C@H](O)[C@H]2O)[C@@H]2[C@@H](C)[C@@H](O)C[C@H]12
As to the kind of experiment: purified protein. The format is biochemical, Camptotheca acuminata. The following applies: ~0.8 mM NADPH, Camptotheca CPR1, 60 uM DLPC, 100 mM NaPO4 pH 7.5, 30 °C.

Substrate in data set [12]: C[C@@H]1[C@H]2[C@H](O[C@@H]3O[C@H](CO)[C@@H](O)[C@H](O)[C@H]3O)OC=C(C(=O)O)[C@H]2C[C@@H]1O
Kind of data set: purified protein. The format is biochemical, Camptotheca acuminata. The following applies: ~0.8 mM NADPH, Camptotheca CPR1, 60 uM DLPC, 100 mM NaPO4 pH 7.5, 30 °C.

T1 sequence (A0A4Y5UJ61 entry or part of it): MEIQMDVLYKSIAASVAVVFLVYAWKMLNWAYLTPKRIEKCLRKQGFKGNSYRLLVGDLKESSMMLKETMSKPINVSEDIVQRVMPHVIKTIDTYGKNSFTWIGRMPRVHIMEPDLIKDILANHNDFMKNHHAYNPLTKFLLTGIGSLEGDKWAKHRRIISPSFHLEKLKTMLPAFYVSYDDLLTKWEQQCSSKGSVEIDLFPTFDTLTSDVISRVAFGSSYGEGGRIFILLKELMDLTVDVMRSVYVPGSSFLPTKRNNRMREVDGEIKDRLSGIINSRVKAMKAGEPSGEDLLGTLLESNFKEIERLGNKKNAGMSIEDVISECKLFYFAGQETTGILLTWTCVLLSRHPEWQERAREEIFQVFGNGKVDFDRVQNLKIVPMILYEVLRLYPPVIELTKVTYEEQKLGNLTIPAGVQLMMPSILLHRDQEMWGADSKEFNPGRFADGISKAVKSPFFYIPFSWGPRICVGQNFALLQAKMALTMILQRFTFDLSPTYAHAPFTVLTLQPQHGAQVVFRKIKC
T2 sequence (A0A7G8Z808 entry or part of it): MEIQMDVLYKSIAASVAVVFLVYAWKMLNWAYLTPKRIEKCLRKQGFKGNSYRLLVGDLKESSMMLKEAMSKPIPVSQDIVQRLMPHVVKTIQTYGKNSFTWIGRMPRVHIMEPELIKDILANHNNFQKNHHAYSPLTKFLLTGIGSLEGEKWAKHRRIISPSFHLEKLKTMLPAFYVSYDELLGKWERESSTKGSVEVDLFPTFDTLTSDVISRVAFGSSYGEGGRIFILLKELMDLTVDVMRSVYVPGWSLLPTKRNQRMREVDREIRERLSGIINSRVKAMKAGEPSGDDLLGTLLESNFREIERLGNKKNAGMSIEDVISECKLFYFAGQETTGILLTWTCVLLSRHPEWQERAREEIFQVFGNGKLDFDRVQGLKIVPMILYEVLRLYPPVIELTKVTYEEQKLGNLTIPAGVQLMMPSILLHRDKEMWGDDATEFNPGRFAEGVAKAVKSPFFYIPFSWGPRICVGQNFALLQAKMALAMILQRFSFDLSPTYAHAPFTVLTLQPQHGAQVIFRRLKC
T6 sequence (A0A4Y5UJ61 entry or part of it K270T): as the sequence (A0A4Y5UJ61 entry or part of it) above, with K270T counted along it

Turning to `C[C@@H]1[C@H]2[C@H](O[C@@H]3O[C@H](CO)[C@@H](O)[C@H](O)[C@H]3O)OC=C(C(=O)O)[C@H]2C[C@@H]1O` [loganic acid], the “LC-MS of secologanic acid formed, reconstituted with CPR1” value at CYP72A565 [1] was “CYP72A564 consistently showed higher SLS and SLAS activity than CYP72A565”; on CYP72A564 [2] it was “CYP72A564 consistently showed higher SLS and SLAS activity than CYP72A565”.

For `COC(=O)C1=CO[C@@H](O[C@@H]2O[C@H](CO)[C@@H](O)[C@H](O)[C@H]2O)[C@@H]2[C@@H](C)[C@@H](O)C[C@H]12` [loganin], the “LC-MS of secologanin formed, reconstituted with CPR1” value on CYP72A565 [3] is “CYP72A564 consistently showed higher SLS and SLAS activity than CYP72A565”; at CYP72A564 [7], “CYP72A564 consistently showed higher SLS and SLAS activity than CYP72A565”. In addition, the Kd in data set [4] was found to be 2.3 ± 1 mM; on CYP72A564 [5], 1.19 ± 0.048 mM; at CYP72A564 [6], 0.0547 ± 0.003 mM; on CYP72A565 [8], 0.345 ± 0.041 mM; on CYP72A565 [9], 1.2 ± 0.084 mM; at CYP72A565 [10], 0.283 ± 0.013 mM.

B1: CYP72A564 (Camptotheca acuminata; H131F) (protein)
chain: MEIQMDVLYKSIAASVAVVFLVYAWKMLNWAYLTPKRIEKCLRKQGFKGNSYRLLVGDLKESSMMLKEAMSKPIPVSQDIVQRLMPHVVKTIQTYGKNSFTWIGRMPRVHIMEPELIKDILANHNNFQKNFHAYSPLTKFLLTGIGSLEGEKWAKHRRIISPSFHLEKLKTMLPAFYVSYDELLGKWERESSTKGSVEVDLFPTFDTLTSDVISRVAFGSSYGEGGRIFILLKELMDLTVDVMRSVYVPGWSLLPTKRNQRMREVDREIRERLSGIINSRVKAMKAGEPSGDDLLGTLLESNFREIERLGNKKNAGMSIEDVISECKLFYFAGQETTGILLTWTCVLLSRHPEWQERAREEIFQVFGNGKLDFDRVQGLKIVPMILYEVLRLYPPVIELTKVTYEEQKLGNLTIPAGVQLMMPSILLHRDKEMWGDDATEFNPGRFAEGVAKAVKSPFFYIPFSWGPRICVGQNFALLQAKMALAMILQRFSFDLSPTYAHAPFTVLTLQPQHGAQVIFRRLKC
notes: full-length ORF, C-terminal His6, in pCWori, expressed in E. coli, purified; kinetics with Camptotheca CPR1 and DLPC
Take B1: in the data set “purified protein [11]”, the Km came out at 50 ± 10 µM, the kcat came to 0.132 ± 0.00333 s⁻¹ and the kcat/Km was 2480 ± 300 M⁻¹ s⁻¹.

B2: CYP72A564 (Camptotheca acuminata; H132D) (protein)
chain: MEIQMDVLYKSIAASVAVVFLVYAWKMLNWAYLTPKRIEKCLRKQGFKGNSYRLLVGDLKESSMMLKEAMSKPIPVSQDIVQRLMPHVVKTIQTYGKNSFTWIGRMPRVHIMEPELIKDILANHNNFQKNHDAYSPLTKFLLTGIGSLEGEKWAKHRRIISPSFHLEKLKTMLPAFYVSYDELLGKWERESSTKGSVEVDLFPTFDTLTSDVISRVAFGSSYGEGGRIFILLKELMDLTVDVMRSVYVPGWSLLPTKRNQRMREVDREIRERLSGIINSRVKAMKAGEPSGDDLLGTLLESNFREIERLGNKKNAGMSIEDVISECKLFYFAGQETTGILLTWTCVLLSRHPEWQERAREEIFQVFGNGKLDFDRVQGLKIVPMILYEVLRLYPPVIELTKVTYEEQKLGNLTIPAGVQLMMPSILLHRDKEMWGDDATEFNPGRFAEGVAKAVKSPFFYIPFSWGPRICVGQNFALLQAKMALAMILQRFSFDLSPTYAHAPFTVLTLQPQHGAQVIFRRLKC
notes: as for B1
With B2, in the data set “purified protein [11]”, the Km stood at 1440 ± 60 µM, the kcat was found to be 0.228 ± 0.005 s⁻¹ and the kcat/Km stood at 158 ± 8.33 M⁻¹ s⁻¹.

B3: CYP72A564 (Camptotheca acuminata; R270T) (protein)
chain: MEIQMDVLYKSIAASVAVVFLVYAWKMLNWAYLTPKRIEKCLRKQGFKGNSYRLLVGDLKESSMMLKEAMSKPIPVSQDIVQRLMPHVVKTIQTYGKNSFTWIGRMPRVHIMEPELIKDILANHNNFQKNHHAYSPLTKFLLTGIGSLEGEKWAKHRRIISPSFHLEKLKTMLPAFYVSYDELLGKWERESSTKGSVEVDLFPTFDTLTSDVISRVAFGSSYGEGGRIFILLKELMDLTVDVMRSVYVPGWSLLPTKRNQRMREVDREITERLSGIINSRVKAMKAGEPSGDDLLGTLLESNFREIERLGNKKNAGMSIEDVISECKLFYFAGQETTGILLTWTCVLLSRHPEWQERAREEIFQVFGNGKLDFDRVQGLKIVPMILYEVLRLYPPVIELTKVTYEEQKLGNLTIPAGVQLMMPSILLHRDKEMWGDDATEFNPGRFAEGVAKAVKSPFFYIPFSWGPRICVGQNFALLQAKMALAMILQRFSFDLSPTYAHAPFTVLTLQPQHGAQVIFRRLKC
notes: as for B1
On to B3, for which, in the data set “purified protein [12]”, the Km stood at 3540 ± 510 µM, the kcat worked out at 0.333 ± 0.0267 s⁻¹ and the kcat/Km is 95 ± 15 M⁻¹ s⁻¹.

B4: CYP72A565 (Camptotheca acuminata; H131F) (protein)
chain: MEIQMDVLYKSIAASVAVVFLVYAWKMLNWAYLTPKRIEKCLRKQGFKGNSYRLLVGDLKESSMMLKETMSKPINVSEDIVQRVMPHVIKTIDTYGKNSFTWIGRMPRVHIMEPDLIKDILANHNDFMKNFHAYNPLTKFLLTGIGSLEGDKWAKHRRIISPSFHLEKLKTMLPAFYVSYDDLLTKWEQQCSSKGSVEIDLFPTFDTLTSDVISRVAFGSSYGEGGRIFILLKELMDLTVDVMRSVYVPGSSFLPTKRNNRMREVDGEIKDRLSGIINSRVKAMKAGEPSGEDLLGTLLESNFKEIERLGNKKNAGMSIEDVISECKLFYFAGQETTGILLTWTCVLLSRHPEWQERAREEIFQVFGNGKVDFDRVQNLKIVPMILYEVLRLYPPVIELTKVTYEEQKLGNLTIPAGVQLMMPSILLHRDQEMWGADSKEFNPGRFADGISKAVKSPFFYIPFSWGPRICVGQNFALLQAKMALTMILQRFTFDLSPTYAHAPFTVLTLQPQHGAQVVFRKIKC
notes: as for B1
As for B4, in “purified protein [11]”, the Km came to 290 ± 80 µM, the kcat came out at 0.128 ± 0.01 s⁻¹ and the kcat/Km came to 445 ± 130 M⁻¹ s⁻¹.

B5: CYP72A565 (Camptotheca acuminata; H131F/H132D) (protein)
chain: MEIQMDVLYKSIAASVAVVFLVYAWKMLNWAYLTPKRIEKCLRKQGFKGNSYRLLVGDLKESSMMLKETMSKPINVSEDIVQRVMPHVIKTIDTYGKNSFTWIGRMPRVHIMEPDLIKDILANHNDFMKNFDAYNPLTKFLLTGIGSLEGDKWAKHRRIISPSFHLEKLKTMLPAFYVSYDDLLTKWEQQCSSKGSVEIDLFPTFDTLTSDVISRVAFGSSYGEGGRIFILLKELMDLTVDVMRSVYVPGSSFLPTKRNNRMREVDGEIKDRLSGIINSRVKAMKAGEPSGEDLLGTLLESNFKEIERLGNKKNAGMSIEDVISECKLFYFAGQETTGILLTWTCVLLSRHPEWQERAREEIFQVFGNGKVDFDRVQNLKIVPMILYEVLRLYPPVIELTKVTYEEQKLGNLTIPAGVQLMMPSILLHRDQEMWGADSKEFNPGRFADGISKAVKSPFFYIPFSWGPRICVGQNFALLQAKMALTMILQRFTFDLSPTYAHAPFTVLTLQPQHGAQVVFRKIKC
notes: as for B1
On to B5, for which, in “purified protein [11]”, the Km was 1710 ± 100 µM, the kcat worked out at 0.53 ± 0.0233 s⁻¹ and the kcat/Km was found to be 280 ± 18.3 M⁻¹ s⁻¹.

As a reminder, the Km is the substrate concentration at which the rate is half of its maximum. A word on the kcat: it is the maximal rate divided by the concentration of active sites. In general, kcat/Km refers to the turnover number divided by the Michaelis constant.
